Consider 56 variants from PMC12102759 (2025).

The labels stand for the following.
B1: NOTCH4 peptide 1606-1621 (Neurogenic locus notch homolog protein 4), 16-mer library wild type / NSP9 (ORF1ab Nsp9, residues 4141-4253) (parent complex)
chain 1: QGAWLGAPEPWEPLLD
chain 2: NNELSPVALRQMSCAAGTTQTACTDDNALAYYNTTKGGRFVLALLSDLQDLKWARFPKSDGTGTIYTELEPPCRFVTDTPKGPKVKYLYFIKGLNNLNRGMVLGSLAATVRLQ
B2: ICA1L peptide 451-466 (Islet cell autoantigen 1-like protein), 16-mer library wild type / NSP16 (ORF1ab Nsp16, residues 6799-7088) (parent complex)
chain 1: QDMSAWFNLFADLDPL
chain 2: SSQAWQPGVAMPNLYKMQRMLLEKCDLQNYGDSATLPKGIMMNVAKYTQLCQYLNTLTLAVPYNMRVIHFGAGSDKGVAPGTAVLRQWLPTGTLLVDSDLNDFVSDADSTLIGDCATVHTANKWDLIISDMYDPKTKNVTKENDSKEGFFTYICGFIQQKLALGGSVAIKITEHSWNADLYKLMGHFAWWTAFVTNVNASSSEAFLIGCNYLGKPREQIDGYVMHANYIFWRNTNPIQLSSYSLFDMSKFPLKLRGTAVMSLKEGQINDMILSLLSKGRLIIRENNRVVI

The first test covers variants of B1. Put plainly: bait immobilised on MaxiSorp plates (10 µg), library pre-cleared on GST, 2 h binding at 4 °C, five washes; one round per day, days 1-4; value from days 2 and 3.
With chain 1 QGAWLGAPEPAEPLLD [chain 1 W11A], the screen value is 0.00423 average fractional NGS count over selection days 2 and 3 (reads of this peptide / all reads for the bait, averaged over ….
On the same count and under the same terms, in the case of chain 1 QGAWLGAPEPPEPLLD [chain 1 W11P] it was 0.0013 average fractional NGS count over selection days 2 and 3 (reads of this peptide / all reads for the bait, averaged over …; in that of chain 1 QGAWLGAPEPVEPLLD [chain 1 W11V], 0.000951 average fractional NGS count over selection days 2 and 3 (reads of this peptide / all reads for the bait, averaged over ….
Still for that read-out and setting: in the case of chain 1 QGAWLGAPEPFEPLLD [chain 1 W11F] it was 0.0024 average fractional NGS count over selection days 2 and 3 (reads of this peptide / all reads for the bait, averaged over ….
As to chain 1 QGAWLGAPEPQEPLLD [chain 1 W11Q], the screen value was 0.00182 average fractional NGS count over selection days 2 and 3 (reads of this peptide / all reads for the bait, averaged over ….
chain 1 QGAWLGAPEPGEPLLD [chain 1 W11G]: the screen value was 0.0061 average fractional NGS count over selection days 2 and 3 (reads of this peptide / all reads for the bait, averaged over ….
On to chain 1 QGAWLGAPEPWEPLKD [chain 1 L15K], for which the screen value is 0.00133 average fractional NGS count over selection days 2 and 3 (reads of this peptide / all reads for the bait, averaged over ….
On to chain 1 QGAWLGAPEPWEPLND [chain 1 L15N], for which the screen value was 0.00024 average fractional NGS count over selection days 2 and 3 (reads of this peptide / all reads for the bait, averaged over ….
Consider chain 1 QGAWLGAPEPWEPLED [chain 1 L15E], for which the screen value was 0.00221 average fractional NGS count over selection days 2 and 3 (reads of this peptide / all reads for the bait, averaged over ….
On the same count and under the same terms, in the case of chain 1 QGAWLGAPEPWEPLMD [chain 1 L15M] it was 0.000609 average fractional NGS count over selection days 2 and 3 (reads of this peptide / all reads for the bait, averaged over …; in that of chain 1 QGAWLGAPEPWEPLHD [chain 1 L15H], 0.00012 average fractional NGS count over selection days 2 and 3 (reads of this peptide / all reads for the bait, averaged over ….
Still for that read-out and setting: with chain 1 QGAWLGAPEPWEPLSD [chain 1 L15S] the figure was 0.00194 average fractional NGS count over selection days 2 and 3 (reads of this peptide / all reads for the bait, averaged over …; with chain 1 QGAWLGAPEPWEPLAD [chain 1 L15A], 0.00794 average fractional NGS count over selection days 2 and 3 (reads of this peptide / all reads for the bait, averaged over …; with chain 1 QGAWLGAPEPWEPLTD [chain 1 L15T], 0.00153 average fractional NGS count over selection days 2 and 3 (reads of this peptide / all reads for the bait, averaged over ….
Consider chain 1 QGAWLGAPEPWEPLVD [chain 1 L15V], for which the screen value was 0.00299 average fractional NGS count over selection days 2 and 3 (reads of this peptide / all reads for the bait, averaged over ….
With chain 1 QGAWLDAPEPWEPLLD [chain 1 G6D], the screen value is 0.000544 average fractional NGS count over selection days 2 and 3 (reads of this peptide / all reads for the bait, averaged over ….
As to chain 1 QGAWLGPPEPWEPLLD [chain 1 A7P], the screen value is 0.000551 average fractional NGS count over selection days 2 and 3 (reads of this peptide / all reads for the bait, averaged over ….
In the case of chain 1 QGAWLGSPEPWEPLLD [chain 1 A7S], the screen value is 0.00083 average fractional NGS count over selection days 2 and 3 (reads of this peptide / all reads for the bait, averaged over ….
As for chain 1 QGAWLGTPEPWEPLLD [chain 1 A7T], the screen value is 0.00295 average fractional NGS count over selection days 2 and 3 (reads of this peptide / all reads for the bait, averaged over ….
Still for that read-out and setting: with chain 1 QGAWLGYPEPWEPLLD [chain 1 A7Y] the figure was 0.000616 average fractional NGS count over selection days 2 and 3 (reads of this peptide / all reads for the bait, averaged over ….
In the case of chain 1 QGAWLGLPEPWEPLLD [chain 1 A7L], the screen value was 0.000927 average fractional NGS count over selection days 2 and 3 (reads of this peptide / all reads for the bait, averaged over ….
In the case of chain 1 QGAWLGMPEPWEPLLD [chain 1 A7M], the screen value was 0.000666 average fractional NGS count over selection days 2 and 3 (reads of this peptide / all reads for the bait, averaged over ….
For the variant chain 1 QGAWLGWPEPWEPLLD [chain 1 A7W], the screen value is 0.000255 average fractional NGS count over selection days 2 and 3 (reads of this peptide / all reads for the bait, averaged over ….
The same measure, in the same setting: with chain 1 QGAWLGNPEPWEPLLD [chain 1 A7N] the figure was 0.00161 average fractional NGS count over selection days 2 and 3 (reads of this peptide / all reads for the bait, averaged over …; with chain 1 QGAWLGFPEPWEPLLD [chain 1 A7F], 0.000134 average fractional NGS count over selection days 2 and 3 (reads of this peptide / all reads for the bait, averaged over ….
For chain 1 QGAWLGVPEPWEPLLD [chain 1 A7V], the screen value was 0.00673 average fractional NGS count over selection days 2 and 3 (reads of this peptide / all reads for the bait, averaged over ….

Variants of B2 are the subject of the next test. Described as above.
Regarding chain 1 QDMSAWFNLFADLDVL [chain 1 P15V], the screen value is 0.000993 average fractional NGS count over selection days 2 and 3 (reads of this peptide / all reads for the bait, averaged over ….
As for chain 1 QDMSAWFNLFADLDGL [chain 1 P15G], the screen value is 0.000662 average fractional NGS count over selection days 2 and 3 (reads of this peptide / all reads for the bait, averaged over ….
Consider chain 1 QDMSAWFNLFADLDTL [chain 1 P15T], for which the screen value is 0.00148 average fractional NGS count over selection days 2 and 3 (reads of this peptide / all reads for the bait, averaged over ….
On the same count and under the same terms, with chain 1 QDMSAWFNLFADLDQL [chain 1 P15Q] the figure was 0.000173 average fractional NGS count over selection days 2 and 3 (reads of this peptide / all reads for the bait, averaged over …; with chain 1 QDMSAWFNLFADLDNL [chain 1 P15N], 0.000142 average fractional NGS count over selection days 2 and 3 (reads of this peptide / all reads for the bait, averaged over ….
Still for that read-out and setting: in the case of chain 1 QDMSTWFNLFADLDPL [chain 1 A5T] it was 0.00049 average fractional NGS count over selection days 2 and 3 (reads of this peptide / all reads for the bait, averaged over …; in that of chain 1 QDMSAWWNLFADLDPL [chain 1 F7W], 0.000183 average fractional NGS count over selection days 2 and 3 (reads of this peptide / all reads for the bait, averaged over ….
The same measure, in the same setting: with chain 1 QDMSAWLNLFADLDPL [chain 1 F7L] the figure was 0.000815 average fractional NGS count over selection days 2 and 3 (reads of this peptide / all reads for the bait, averaged over …; with chain 1 QDMSAWFNLFADLEPL [chain 1 D14E], 0.00108 average fractional NGS count over selection days 2 and 3 (reads of this peptide / all reads for the bait, averaged over ….
On to chain 1 QDMSAWFNLFADLPPL [chain 1 D14P], for which the screen value was 0.000203 average fractional NGS count over selection days 2 and 3 (reads of this peptide / all reads for the bait, averaged over ….
Take chain 1 QDMSAWFNLFGDLDPL [chain 1 A11G]: the screen value was 9.42e-05 average fractional NGS count over selection days 2 and 3 (reads of this peptide / all reads for the bait, averaged over ….
Same read-out and setting: with chain 1 QDMSAWFTLFADLDPL [chain 1 N8T] the figure was 0.000466 average fractional NGS count over selection days 2 and 3 (reads of this peptide / all reads for the bait, averaged over ….
As to chain 1 QDMSAWFHLFADLDPL [chain 1 N8H], the screen value is 0.00331 average fractional NGS count over selection days 2 and 3 (reads of this peptide / all reads for the bait, averaged over ….
With chain 1 QDMSAWFGLFADLDPL [chain 1 N8G], the screen value was 0.000503 average fractional NGS count over selection days 2 and 3 (reads of this peptide / all reads for the bait, averaged over ….
As to chain 1 QDMTAWFNLFADLDPL [chain 1 S4T], the screen value is 0.00139 average fractional NGS count over selection days 2 and 3 (reads of this peptide / all reads for the bait, averaged over ….
On the same count and under the same terms, in the case of chain 1 QDMSAWFNLFADLDPW [chain 1 L16W] it was 0.000423 average fractional NGS count over selection days 2 and 3 (reads of this peptide / all reads for the bait, averaged over …; in that of chain 1 QDMSAWFNLFADLDPV [chain 1 L16V], 0.000224 average fractional NGS count over selection days 2 and 3 (reads of this peptide / all reads for the bait, averaged over ….
For the variant chain 1 QDMSAWFNLFADLDPY [chain 1 L16Y], the screen value is 0.00657 average fractional NGS count over selection days 2 and 3 (reads of this peptide / all reads for the bait, averaged over ….
Regarding chain 1 QDMSAWFNLFADLDPM [chain 1 L16M], the screen value is 0.0149 average fractional NGS count over selection days 2 and 3 (reads of this peptide / all reads for the bait, averaged over ….
For the variant chain 1 QDMSAWFNLFADLDPR [chain 1 L16R], the screen value is 0.000401 average fractional NGS count over selection days 2 and 3 (reads of this peptide / all reads for the bait, averaged over ….
Still for that read-out and setting: with chain 1 QDMSAWFNLFADLDPT [chain 1 L16T] the figure was 0.000115 average fractional NGS count over selection days 2 and 3 (reads of this peptide / all reads for the bait, averaged over ….
The same measure, in the same setting: in the case of chain 1 QDMSAWFNLFAHLDPL [chain 1 D12H] it was 0.0543 average fractional NGS count over selection days 2 and 3 (reads of this peptide / all reads for the bait, averaged over ….
On the same count and under the same terms, with chain 1 QDMSAWFNLFAYLDPL [chain 1 D12Y] the figure was 0.000481 average fractional NGS count over selection days 2 and 3 (reads of this peptide / all reads for the bait, averaged over …; with chain 1 QDMSAWFNLFAWLDPL [chain 1 D12W], 0.00015 average fractional NGS count over selection days 2 and 3 (reads of this peptide / all reads for the bait, averaged over ….
As for chain 1 QDMSAWFNLFADMDPL [chain 1 L13M], the screen value was 0.00451 average fractional NGS count over selection days 2 and 3 (reads of this peptide / all reads for the bait, averaged over ….
On the same count and under the same terms, with chain 1 QDMSAWFNLFADFDPL [chain 1 L13F] the figure was 8.42e-05 average fractional NGS count over selection days 2 and 3 (reads of this peptide / all reads for the bait, averaged over …; with chain 1 QDMSAWFNLFADWDPL [chain 1 L13W], 0.0001 average fractional NGS count over selection days 2 and 3 (reads of this peptide / all reads for the bait, averaged over …; with chain 1 QDMSAWFNMFADLDPL [chain 1 L9M], 0.111 average fractional NGS count over selection days 2 and 3 (reads of this peptide / all reads for the bait, averaged over ….
Consider chain 1 QSMSAWFNLFADLDPL [chain 1 D2S], for which the screen value was 0.000218 average fractional NGS count over selection days 2 and 3 (reads of this peptide / all reads for the bait, averaged over ….
Same read-out and setting: with chain 1 QDISAWFNLFADLDPL [chain 1 M3I] the figure was 0.00221 average fractional NGS count over selection days 2 and 3 (reads of this peptide / all reads for the bait, averaged over ….
